Patent US20040033954A1, “Therapeutic method for combined use of modified CNTF and thiadolidinedione” (priority 2002, published 2004)

Key:
[1] = cited from earlier work
[2] = system: C57BL/KsJ db/db mice; experiment: Body weight and food intake of db/db mice under daily treatment; type: in vivo
Experimental: FIG. 1 is a graph of the effect of co-administration of Axokine™ (SEQ ID NO:1) (0.1 or 0.3 mg/kg s.c.), Avandia™ (3 or 10 mg/kg/day oral gavage) , or vehicle for 12 days on body weight in C57BL/KsJ db/db mice (% change from the first day of treatment). At day 5 (arrow), two combined treatment groups were initiated receiving Avandia™ (3 mg/kg/day, oral gavage)+Axokine™ (0.1 or 0.3 mg/kg s.c.). All data represents the mean (n≧6)±SEM.
C57BL/KsJ db/db mice were treated by daily administration of Axokine™ (SEQ ID NO:1) (0.1 or 0.3 mg/kg s.c.), Avandia™ (3 or 10 mg/kg/day oral gavage), and vehicle (vehicle) for […], and the effect on body weight determined (FIG. 1, shown as the % change from the first day of treatment). […] A combined treatment group consisted of Avandia™ (3 mg/kg/day, oral gavage) +Axokine™ (0.1 or 0.3 mg/kg s.c.) administered for the […] (arrow, FIG. 1). All data represents the mean (n>6)±SEM.

[3] = previously found by the applicant; cited from earlier work
[4] = system: C57Ks/J db/db male mice; experiment: Fatty liver of db/db mice, Oil-Red O staining for neutral lipid; type: in vivo; settings: 10-week-old db/db male mice; Avandia 3 or 10 mg/kg/day oral gavage for 13 days, ± Axokine 0.1 or 0.3 mg/kg/day in the last 8 days
Experimental: The effects of Avandia™ administration ±Axokine™ (SEQ ID NO:1) on fatty liver of db/db mice was examined. 10-week-old C57Ks/J db/db male mice were treated for 13 days with either vehicle or Avandia™ alone (3 or 10 mg/kg/day) by oral gavage or ±Axokine™ (0.1 or 0.3 mg/kg/day) in the last 8 days. 24 hours after the last administration (day 14) all animals were anesthetized , the liver removed and rapidly frozen until it could be processed. The tissues were sectioned, mounted on glass, and stained with Oil-Red O for the detection of neutral lipid.

[5] = daily injection 0.1 or 0.3 mg/kg s.c.

CN(CCOc1ccc(CC2SC(=O)NC2=O)cc1)c1ccccn1 (stereo not shown) [Avandia™, rosiglitazone]
body weight ([1]; Chaput et al. (2000)): increased body weight

Cc1c(C)c2c(c(C)c1O)CCC(C)(COc1ccc(CC3SC(=O)NC3=O)cc1)O2 (stereo not shown) [troglitazone]
hepatic reaction ([1]; patients, Lebovitz et al. (2002)): idiosyncratic hepatic reaction leading to hepatic failure and death in some patients

B1: Axokine™: modified CNTF molecule (SEQ ID NO:1) with improved physical and chemical properties, which activates the CNTF receptor (protein)
chain: MAFTEHSPLTPHRRDLASRSIWLARKIRSDLTALTESYVKHQGLNKNINLDSADGMPVASTDRWSELTEAERLQENLQAYRTFHVLLARLLEDQQVHFTPTEGDFHQAIHTLLLQVAAFAYQIEELMILLEYKIPRNEADGMPINVGDGGLFEKKLWGLKVLQELSQWTVRSIHDLRFISSHQTG
body weight [2, 5]: caused weight loss | food intake [2, 5]: decreased food intake | body weight with increasing doses, versus vehicle control groups ([2]; increasing doses, ANOVA, P<0.0001 in all cases): further reduction in body weight | effect on food intake and body weight, blood glucose and tolerance, and serum insulin levels [3]: profound effect | deposition of neutral lipid in liver (Oil-Red O staining) [4]: reduced staining with Oil Red O
